We go through two molecules from publication PMC2112702 (The Journal of Cell Biology, 1983).

The target of this assay is clathrin (Mr ~180,000 polypeptide) (bovine (calf brain), UniProt P49951 1-1675). Nature of the assay: co-sedimentation.
Sequence of clathrin (Mr ~180,000 polypeptide) (P49951 whole entry): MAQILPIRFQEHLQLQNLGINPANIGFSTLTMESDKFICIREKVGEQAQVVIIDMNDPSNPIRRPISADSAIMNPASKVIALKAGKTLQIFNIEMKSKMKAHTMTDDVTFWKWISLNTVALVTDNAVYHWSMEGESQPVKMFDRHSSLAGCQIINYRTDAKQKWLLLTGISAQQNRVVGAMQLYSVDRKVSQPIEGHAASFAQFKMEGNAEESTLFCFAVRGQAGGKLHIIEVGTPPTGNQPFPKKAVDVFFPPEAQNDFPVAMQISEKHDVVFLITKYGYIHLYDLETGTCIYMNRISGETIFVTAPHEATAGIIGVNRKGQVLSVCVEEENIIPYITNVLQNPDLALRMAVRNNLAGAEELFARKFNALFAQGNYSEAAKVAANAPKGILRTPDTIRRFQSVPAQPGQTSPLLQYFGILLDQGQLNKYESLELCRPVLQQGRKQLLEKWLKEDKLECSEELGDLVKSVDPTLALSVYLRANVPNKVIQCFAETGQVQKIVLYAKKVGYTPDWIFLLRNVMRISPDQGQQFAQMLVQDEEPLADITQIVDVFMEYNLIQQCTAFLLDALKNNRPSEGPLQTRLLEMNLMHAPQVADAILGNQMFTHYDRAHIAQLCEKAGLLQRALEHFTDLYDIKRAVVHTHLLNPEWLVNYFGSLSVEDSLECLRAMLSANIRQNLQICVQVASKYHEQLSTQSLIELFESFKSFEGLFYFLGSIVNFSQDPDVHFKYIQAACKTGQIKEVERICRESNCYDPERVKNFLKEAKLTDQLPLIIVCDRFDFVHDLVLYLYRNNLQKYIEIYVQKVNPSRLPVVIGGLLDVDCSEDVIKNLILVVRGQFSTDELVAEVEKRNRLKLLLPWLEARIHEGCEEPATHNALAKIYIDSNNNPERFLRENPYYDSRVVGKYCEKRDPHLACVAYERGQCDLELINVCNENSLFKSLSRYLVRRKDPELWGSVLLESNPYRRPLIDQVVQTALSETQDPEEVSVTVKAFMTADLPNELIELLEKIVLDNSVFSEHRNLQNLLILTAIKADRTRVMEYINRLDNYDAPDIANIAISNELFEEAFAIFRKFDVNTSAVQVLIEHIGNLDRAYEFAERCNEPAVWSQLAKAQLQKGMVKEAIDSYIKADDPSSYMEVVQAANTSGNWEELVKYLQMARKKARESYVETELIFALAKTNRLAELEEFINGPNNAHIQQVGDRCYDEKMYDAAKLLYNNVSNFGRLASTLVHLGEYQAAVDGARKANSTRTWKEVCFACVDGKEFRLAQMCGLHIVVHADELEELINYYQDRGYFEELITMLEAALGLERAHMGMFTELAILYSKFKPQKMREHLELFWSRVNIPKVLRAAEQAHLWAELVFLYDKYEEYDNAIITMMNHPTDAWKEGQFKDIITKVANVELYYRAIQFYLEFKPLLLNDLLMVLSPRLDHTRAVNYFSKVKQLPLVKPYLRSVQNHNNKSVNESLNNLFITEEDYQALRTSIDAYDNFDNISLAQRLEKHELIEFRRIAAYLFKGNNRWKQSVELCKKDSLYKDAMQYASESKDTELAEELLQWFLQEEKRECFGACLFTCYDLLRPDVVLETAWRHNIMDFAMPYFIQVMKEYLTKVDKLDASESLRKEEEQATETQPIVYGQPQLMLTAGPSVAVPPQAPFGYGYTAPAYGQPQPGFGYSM

B1: clathrin light chain, Mr 33,000 (natural protein, bovine (calf brain), UniProt P04975 1-228, looked up)
chain: MADDFGFFSSSESGAPEAAEEDPAAAFLAQQESEIAGIENDEGFGAPAGSQGGLAQPGPASGASEDMGATVNGDVFQEANGPADGYAAIAQADRLTQEPESIRKWREEQRKRLQELDAASKVMEQEWREKAKKDLEEWNQRQSEQVEKNKINNRIADKAFYQQPDADIIGYVASEEAFVKESKEETPGTEWEKVAQLCDFNPKSSKQCKDVSRLRSVLMSLKQTPLSR
Regarding B1, the “stoichiometry N” value was 1.62 mol per 3.00 mol of 180,000 clathrin (one triskelion).

B2: clathrin light chain, Mr 36,000 (natural protein, bovine (calf brain), UniProt P04973 1-243, looked up)
chain: MAELDPFGVPAGGPALGNGVAGEEDPAAAFLAQQESEIAGIENDEAFAILDGGAPGSQPHGEPPGIPDAVDGVTNGDYYQESNGPTDSYAAISQVDRLQSEPESIRKWREEQTERLEALDANSRKQEAEWKEKAIKELDEWYARQDEQLQKTKANNRVADEAFYKQPFADVIGYVTNINHPCYSLEQAAEEAFVNDIEESSPGTEWERVARLCDFNPKSSKQAKDVSRMRSVLISLKQAPLVH
For B2, the “stoichiometry N” value is 0.83 mol per 3.00 mol of 180,000 clathrin (one triskelion).
